{
  "source": "paper PMC12543377",
  "about": "“https://orcid.org/0000-0003-0166-1786 Gustavsson Emil Data curation Formal analysis Investigation Methodology Project administration Validation Visualization Writing - original draft Writing - review”",
  "binders": {"B1": {"name": "HSV-1 origin-binding protein (OBP), encoded by the UL9 gene (enzyme)", "chain": "MPFVGGAESGDPLGAGRPIGDDECEQYTSSVSLARMLYGGDLAEWVPRVHPKTTIERQQHGPVTFPNASAPTARCVTVVRAPMGSGKTTALIRWLREAIHSPDTSVLVVSCRRSFTQTLATRFAESGLVDFVTYFSSTNYIMNDRPFHRLIVQVESLHRVGPNLLNNYDVLVLDEVMSTLGQLYSPTMQQLGRVDALMLRLLRICPRIIAMDATANAQLVDFLCGLRGEKNVHVVVGEYAMPGFSARRCLFLPRLGTELLQAALRPPGPPSGPSPDASPEARGATFFGELEARLGGGDNICIFSSTVSFAEIVARFCRQFTDRVLLLHSLTPLGDVTTWGQYRVVIYTTVVTVGLSFDPLHFDGMFAYVKPMNYGPDMVSVYQSLGRVRTLRKGELLIYMDGSGARSEPVFTPMLLNHVVSSCGQWPAQFSQVTNLLCRRFKGRCDASACDTSLGRGSRIYNKFRYKHYFERCTLACLSDSLNILHMLLTLNCIRVRFWGHDDTLTPKDFCLFLRGVHFDALRAQRDLRELRCRDPEASLPAQAAETEEVGLFVEKYLRSDVAPAEIVALMRNLNSLMGRTRFIYLALLEACLRVPMATRSSAIFRRIYDHYATGVIPTINVTGELELVALPPTLNVTPVWELLCLCSTMAARLHWDSAAGGSGRTFGPDDVLDLLTPHYDRYMQLVFELGHCNVTDGLLLSEEAVKRVADALSGCPPRGSVSETDHAVALFKIIWGELFGVQMAKSTQTFPGAGRVKNLTKQTIVGLLDAHHIDHSACRTHRQLYALLMAHKREFAGARFKLRVPAWGRCLRTHSSSANPNADIILEAALSELPTEAWPMMQGAVNFSTL", "notes": "No viral strain is named; Tag removal is not mentioned; also called monomer A; monomer B; source: ExpiSf9 cells (recombinant baculovirus), purified (StrepTrap HP, eluted with desthiobiotin)"}, "B2": {"name": "OriS-6AT (dsDNA)", "DNA 1": "AAAAGAAGTGAGAACGCGAAGCGTTCGCACTTCGTCCCAATATATTATTAGGGCGAAGTGCGAGCACTGGCGCC", "DNA 2": "GGCGCCAGTGCTCGCACTTCGCCCTAATAATATATTGGGACGAAGTGCGAACGCTTCGCGTTCTCACTTCTTTT"}, "B3": {"name": "OriS (dsDNA)", "DNA 1": "AAAAGAAGTGAGAACGCGAAGCGTTCGCACTTCGTCCCAATATATATATATTATTAGGGCGAAGTGCGAGCACTGGCGCC", "DNA 2": "GGCGCCAGTGCTCGCACTTCGCCCTAATAATATATATATATTGGGACGAAGTGCGAACGCTTCGCGTTCTCACTTCTTTT"}},
  "key": {"[1]": {"target": "OBP (UL9 origin-binding protein), monomer (Herpes simplex virus 1, UniProt D3YPE9 1-851)", "experiment": "cryo-EM; monomer; preferred orientation, DNA path needs validation; 20 mM HEPES pH 7.8, 150 mM NaCl, 5 mM MgCl2, 2 mM DTT, 5% glycerol; 2 uM OBP, protein:DNA 1:1.2, 37 C 30 min, then vitrified", "conditions": "protein: recombinant; (StrepTrap purification; tag not described); hairpin with 3' single-stranded tail"}, "[2]": {"target": "T1, OBP (UL9 origin-binding protein), dimer-dimer assembly (Herpes simplex virus 1, UniProt D3YPE9 1-851)", "experiment": "cryo-EM; two dimers with putatively two mini-OriS* copies; 20 mM HEPES pH 7.8, 150 mM NaCl, 5 mM MgCl2, 2 mM DTT, 5% glycerol; 2 uM OBP, protein:DNA 1:1.2, 37 C 30 min, then vitrified", "conditions": "protein: recombinant; (StrepTrap purification; tag not described); chain copies: 4; hairpin with 3' single-stranded tail"}, "[3]": {"target": "the molecule itself", "experiment": "cryo-EM structure; OBP + mini-OriS*, dimer-dimer assembly dataset; same reconstitution; lower resolution; dimers to dimer-dimer assembly"}, "[4]": {"target": "T2, OBP (UL9 origin-binding protein), dimer (Herpes simplex virus 1, UniProt D3YPE9 1-851)", "experiment": "cryo-EM; no nucleotide; 5 mM MgCl2; one dimer at Box 1; 20 mM HEPES pH 7.8, 150 mM NaCl, 5 mM MgCl2, 2 mM DTT, 5% glycerol; 2 uM OBP, protein:DNA 1:1.2, 37 C 30 min, then vitrified", "conditions": "protein: recombinant; (StrepTrap purification; tag not described); chain copies: 2"}, "[5]": {"target": "T2, OBP (UL9 origin-binding protein), dimer", "experiment": "cryo-EM; ATPgS, Mg2+; one dimer at Box 1; 20 mM HEPES pH 7.8, 150 mM NaCl, 5 mM MgCl2, 2 mM DTT, 5% glycerol; 2 uM OBP, protein:DNA 1:1.2, 37 C 30 min, then vitrified", "conditions": "protein: recombinant; (StrepTrap purification; tag not described); chain copies: 2"}, "[6]": {"target": "T1, OBP (UL9 origin-binding protein), …", "experiment": "cryo-EM (2D classes); two dimers, each apparently on two antiparallel OriS helices (Box 1 and Box 2); low frequency; 20 mM HEPES pH 7.8, 150 mM NaCl, 5 mM MgCl2, 2 mM DTT, 5% glycerol; 2 uM OBP, protein:DNA 1:1.2, 37 C 30 min, then vitrified", "conditions": "protein: recombinant; (StrepTrap purification; tag not described); chain copies: 4"}},
  "data": [
    {"binder": "AAAAGAAGTGAGAACGCGAAGCGTTCGCACTTCGTTTTTTTTTT (structured_DNA)", "note": "[mini-OriS*]", "values": [
      {"measurement": "binding result", "setting": "[1]", "value": "binds"},
      {"measurement": "binding result", "setting": "[2]", "value": "binds"}
    ]},
    {"binder": "B1", "values": [
      {"measurement": "stoichiometry N", "setting": "[3]", "value": 4}
    ]},
    {"binder": "B2", "values": [
      {"measurement": "binding result", "setting": "[4]", "value": "binds"}
    ]},
    {"binder": "B3", "values": [
      {"measurement": "binding result", "setting": "[5]", "value": "binds"},
      {"measurement": "binding result", "setting": "[6]", "value": "binds"}
    ]}
  ]
}
